experiment: soluble on expression in E. coli; label from the status in PepcDB or PDB records

Row | Sequence | soluble on expression in E. coli
1 | MTEMKILIVTLTYIEKSIIDEIVNNLSSYGLEVDILLDSRKYLPISAFNWERLQYDAEKVLSFLKSIHDFNYDSIIFLADSDGYIDGYNFVFGLTIDNFAIIFLHRLREEFYNRKPDLDLFMKRVVKEVTHEVGHTLGLSHCNTTGCVMNFSNSVEDVDKKQAKFCKNCAHKIEKLSKYLQQKLEHHHHHH | not soluble
2 | MTKSLPGVADLRLGANHPRMWTRRVQGTVVNVGVKVLPWIPTPAKRILSAGRSVIIDGNTLDPTLQLMLSTSRIFGVDGLAVDDDIVASRAHMRAICEAMPGPQIHVDVTDLSIPGPAGEIPARHYRPSGGGATPLLVFYHGGGWTLGDLDTHDALCRLTCRDADIQVLSIDYRLAPEHPAPAAVEDAYAAFVWAHEHASDEFGALPGRVAVGGDSAGGNLSAVVCQLARDKARYEGGPTPVLQWLLYPRTDFTAQTRSMGLFGNGFLLTKRDIDWFHTQYLRDSDVDPADPRLSPLLAESLSGLAPALIAVAGFDPLRDEGESYAKALRAAGTAVDLRYLGSLTHGFLNLFQLGGGSAAGTNELISALRAHLSRV | soluble
3 | MGSDKIHHHHHHMARSHRLFELMQALRRHRRTVSGASLAQELGVSLRTIRRDVATLQGMGADIDGEPGLGYILKPGFLLPPLSFTEEELQALMIGAQWVSRQTDDKFAFAVRNALAKISAVLPVEMRPTLEDETFYISKPLSVSTTIDLSEIRRALRDQCKLSITLAIEHAPKDAQIIWPIMLGFIEARRHLAAWCEGDSQYRVIDMDDIADAHVLTERYTRNRRQLIKEWRALEVLPCNVRGETC | not soluble
4 | PGKGEGSPVGIAILGYGTVGSQVLRLLTENHNDFQHRAGGPLEIKGVAASSVEKHRGSLADQLGLLTDDARSLIARDDVDIVVEVIGGIDYPRELILEALHSGKSVVTANKALVAAHSEELAAAADEAGVDLYFEAAVAAAIPVLGPLRRSLAGDQIQSVAGIVNGTTNFILDAMDSTGASYDDMLAEATRLGYAEADPTADVEGHDAASKAAILASLAFHTRVTYADVYCEGISKITADDINAAKEAGFTIKLLAICERLNVDGVEKVSARVHPTLVPRNHPLASVDKSFNAIFVEAEAAGRLMFYGNGAGGNPTASAVLGDIVGAARNKVFGGRAPGESTYADLPIAPFGEVPTRFHIDMEVEDRVGVLADLAKTFSNHGISLRTVRQAEKDGHARLIVVTHTAKESELEATVEQIKNSDSVKKINSVIRLAG | soluble
5 | MSSEFISKVDKEARRKAANILRDKFLNLVEQLKKGEPLVMEIPMRTLSNAIYDEKRKLLLLGEKKLRRNFLDLNEAKRFMQTVLMASIIYDALVSDEYPTIRDLYYRGKHSLLLKSIEGNKIVSEENTWDEQKESDSVIVDIEVFTSLLREEMLILSKEKGKVVGNLRIRSGNDVIDLSKTGHGAYAIEPTPDLIDFIDVDAEFVLVVEKDAVFQQLHRAGFWKQYKSILITSAGQPDRATRRFVRRLNEELKLPVYILTDADPYGWYIFSVFRIGSISLSYESERLATPDAKFLGVSMGDIFGNSRKKPYLSEAERKNYIIKAKDADIKRAEEIKNYEWFKTKAWQEEINTFLQRKAKLEIEAMASKGLKFLAFQYIPEKITNKDYIA | soluble
6 | MVLILNGPNLNLLGRREPEVYGRTTLEELEALCEAWGAELGLGVVFRQTNYEGQLIEWVQQAHQEGFLAIVLNPGALTHYSYALLDAIRAQPLPVVEVHLTNLHAREEFRRHSVTAPACRGIVSGFGPLSYKLALVYLAETLEVGGEGF | soluble
7 | MGSDKIHHHHHHFLDELPDNRTELNSEQKIAKMLVSAYPEGSANELFELYSDNTDDNSARYSYYKLSEEECYNWKDTQEEYQDTPTNLWETHYIAIASANMALEEIEKRGNPESLMPQRGEALVCRAYNHFVLANIFCNAYNTHASQELGIPYMTKVETTVQPQYGRGTLQETYEKIEKDLLDGMALISDDSYSVPKYHFTRKAAYAFAARFYLYYMKPDFSNCDEVIKYADRVLGSDPAAELRDWEALGKLSANDNVQPDAYIASTSKANLLIGSTVSNWGIILSNYMTGKRYLHNKLIASYETSRSSGLWGIPDRMYMQPFTTSGYECSMLRKGGYYAGDYLYYMPVIFSTDETLLCRAEAYTLKKNYPMAAADLTTWEKAYTSNKQTLTPGMINEYYDKMDYYNPTQNPTPKKKLQPDFTIESGIQENFIHCILHMRRIATLHEGLRWPDIKRYGIVIYRRSIANNNIVVTDEMPVNDARRAMQIPKSVVLAGMQPNPRTEN | not soluble
8 | MPDAVVVGAGPNGLVAANLLADAGWSVTVLEEQPEPGGAVRHDGEVAPGFVNDLFSSFYPLAAASPVLGGLRLEEHGLRWAHAPHVLAHPLTDGTCAVLDRDVATTAASLDAFALGDGAAWERLHAVWDRYRADILDALFTPFPPVRATARLALRLRGAGGLRLARTLVLPVRRMGEEEFRGEGGRLLLAGNALHADLAPEAAGSGGFGWLMSMLGQTYGFPVPVGGSGALTEALVHRLRARGGTLHCGRRVERVLVRDRRAVGVRTADGETVTARRAVLANVSVPALYGRLVAPADLPDQVLTDLRRFQWDFATFKVDWALDGPVPWQCEAAARAGTVHLSDGLDELTRFAAQIAMRQVPDRPFSLFGQMTTTDPTRSPRGTESAWAYTHVPHDIRADAGEEGITGTWDTGERELMADRVERQVERFAPGFRALIRARRVLAPPTLQALDANLEGGAINGGTTAMHQQLVFRPVPGTGRPETPVAGLFLASAGAHPGGGVHGAPGANAARAALRQHRFAGLARIQRALTRRDRAGDRHLEHHHHHH | not soluble
9 | MLSFINKPRMESKMTIPELRELYQTQQLVEAIIEPSFQEGEWIVEFRHQMGGFVLLTDENGEECRYIDLDSASQSAMAVGFRQVRIENQ | not soluble
10 | MANNVTFWFDVSCPFCWITSRWIKEVEKVRDISVTWVPMSLSVLNDGRDELPQDYKDKMKANWGPARVFAAVATEQPDRVDALYTAMGTRIHNQGEGGKQGYAAYDAIIADALEDVGLPASYAAVANTDTWDNALAAFHATAMDAVGNDVGTPVVKLGDTAFFGPVLTRIPRGEEAGMLFDASFQLAAYPHFFEIKRTRTESPQFD | not soluble
11 | MIGPISQINISGGLSEKETSSLISNEELKNIITQLETDISDGSWFHKNYSRMDVEVMPALVIQANNKYPEMNLNLVTSPLDLSIEIKNVIENGVRSSRFIINMGEGGIHFSVIDYKHINGKTSLILFEPANFNSMGPAMLAIRTKTAIERYQLPDCHFSMVEMDIQRSSSECGIFSFALAKKLYIERDSLLKIHEDNIKGILSDGKNPLPHDKLDPYLPVTFYKHTQGKKRLNEYLNTNPQGVGTVVNKKNETIVNRFDNNKSIVDGKELSVSVHKKRIAEYKTLLKV | not soluble
12 | MYEAHFGLKQLPFTLTPNTSLFHGLSPHYEAIHTVLSAISMGEGIIKVTGEVGTGKTLVCRMLINELPSNVELLYLPNPVMNGHELRQALAKELWLDQSGDDIALIDRIHEKIIDLHAEGKLVVVFIDEAQALSDEALETLRLFGNLETDYKKLLQIVLFGQPELDERLQQHNLRQLRQRITFSALLRALNMNETVAYIRYRIAESGCENNPFSLVQMKAIWKATNGIPRLINQVCHKSLLIAFSEQVNNVPSKAVFNAIIDTADTVKPKHYFPTFWGWRVSLEHHHHHH | soluble
13 | MIDDRQEEKMIKENVYFDGNVKSLGFSQQDGESTVGVMAPGQYTFGTGAPERMTVVKGALTIKRVTDADWVTFTAGEAFEVAGNSSFDLQVEVATAYLCEFLPA | not soluble
14 | MSLTTRVIALDLDGTLLTPKKTLLPSSIEALARAREAGYQLIIVTGRHHVAIHPFYQALALDTPAICCNGTYLYDYHAKTVLEADPMPVIKALQLIEMLNEHHIHGLMYVDDAMVYEHPTGHVIRTSNWAQTLPPEQRPTFTQVASLAETAQQVNAVWKFALTHDDLPQLQHFGKHVEHELGLECEWSWHDQVDIARGGNSKGKRLTKWVEAQGWSMENVVAFGDNFNDISMLEAAGTGVAMGNADDAVKARANIVIGDNTTDSIAQFIYSHLIEGHHHHHH | soluble
15 | MGKKELKRGLVVDREAQMIGVYLFEDGKTYRGIPRGKVLKKTKIYAGDYVWGEVVDPNTFAIEEVEERKNLLIRPKVANVDRVIIVETLKMPEFNNYLLDNMLVVYEYFKVEPVIVFNKIDLLNEEEKKELERWISIYRDAGYDVLKVSAKTGEGIDELVDYLEGFICILAGPSGVGKSSILSRLTGEELRTQEVSEKTERGRHTTTGVRLIPFGKGSFVGDTPGFSKVEATMFVKPREVRNYFREFLRYQCKYPDCTHTNEPGCAVKEAVKNGEISCERYKSYLKIIKVYLEEIKELCRED | soluble
16 | MPVLSIIACGMLEDELVHVLSKDCELKQLIVVENGNNSGFLRKLRAGKCIPRTIPLDRVQMFFKTGFNPDFETLAKFLAPFPFLGKVCEKMNEKAGQQVSVVVNLLRLGLHADLELLKSEVFRNIREMAAFSDGILIFYGTCGHVLGELEKDFIDLGCPLFFLKDKAGEIVEDCISTALGGNEAYARAMLACRGKGTIYLTPMWASSWKNFEKGSGSKDLNNRYLKNSRYCLAVKIETGISYEPDFHQNVQEFARTFGMKTITLKGSSEITEQGYFDARKALVKNSDCLPKNHQDMEFLEHHHHHH | not soluble
17 | MNAVAPLIPCIVSGGSGTRLWPVSRESMPKPFMRLADDQSLLQKTFLRIAGLPDVARLLTVTNRDLLFRTLDDYRAVNRSGLAQDLLLEPVGRNTAPAIAAAALHVQEHFGDQAQLLILPADHLIRDEQAFAAAVAEARGLAAQGYLVTFGITPERAETGFGYIEQGAPLGNGFRVARFVEKPDQATAQSYLDSGKYLWNAGMFCFQAATVLQELERHAPEVLIAARAALADGSSLENGQCRQRELAAGAFAEAPDISVDYALMERSDKVAVVPCSIGWSDIGSWQALRELSAADENGNQVRGESVLHDVSNCYIDSPKRLVGAVGVHDLIIVDTPDALLVADAARSQDVKFVAQELKRRGHDAFRLHRTVSRPWGTYTVLEEGRRFKIKRIVVRPKASLSLQMHHHRSEHWIVVSGMALVENGEREFLLNTNESTFIPAGHSHRLSNPGIIDLVMIEVQSGEYLGEDDIVRFNDIYGRAPASDEKK | not soluble
18 | MNTREVELRGHIIDSLILPRALDIIMDMGGDFQILEIDIGKRKSDPSHARILVEAETPSLLNQILDELGEIGASIAEIKEAELRRAPMDRVLPDDFYSTTNHQTFIYHGGEWVEVEGIEMDCMIVVDPESRTARCKPIREIKKGDLVVVGREGIKVVPPERPRGKQGVFEFMGSEVSSEKPLVTTIKKIASEITEIKKRGGRIGLVGGPAIVHTGSAPVIAEMIRLGFIDVLFAGNALATHDIECALYGTSLGVDIDRGEAVSRGHRHHINAINEINRAGSIRDAVEQGVLTSGIMYECVKNDVPFVLAGSIRDDGPLPDVITDVMEAQNEMRKYVQDLDMVIMIATMLHSIATGNILPSRVKTICVDINPATVTKLSDRGSSQAVSVVTDVGAFIPILLHEIKKMNGLGDLEHHHHHH | soluble
19 | MKIRIFVPQNKFMNREMLYNDLSGFLAMHFPCKVQKISINAGFTCPNRDGSVGYGGCTYCNNQTFNPAYCHTGKSVAQQLEEGKRFFVRKYPEMKYLAYFQAYTNTYGELEELKRKYEEALMVEDVVGLVIGTRPDCMPISLLDYLEDLGKRTFVLVEYGIESTDDETLRRINRGHTFAVSAEAVRKTAERGILVGGHIILGLPGEEREMLIRQAGVLSQLPLTTLKLHQLQLIKGTRMASEYVKEPEAFHLYTADEYVDLVIDYIEHLRPDIVLERFVSQSPKELLIAPDWGLKNYEFTDKVKKRMREKDAWQGKYYKY | not soluble

Source: the DeepSol protein solubility set
